{"source": "paper PMC4284802", "about": "“The tumour suppressor DLC2 ensures mitotic fidelity by coordinating spindle positioning and cell–cell adhesion” (Nature Communications, 2014)", "molecular_target": "T1, His-tagged recombinant protein containing the forkhead-associated (FHA) domain of Kif1B (residues 367-999) (human, UniProt O60333-2 367-999)", "T1 construct": "cloned into pRSET-A; Vector pRSET-A; also called Kif1B FHA domain; His-Kif1B; source: E. coli BL21pLysS, purified", "T1 sequence (looked up)": "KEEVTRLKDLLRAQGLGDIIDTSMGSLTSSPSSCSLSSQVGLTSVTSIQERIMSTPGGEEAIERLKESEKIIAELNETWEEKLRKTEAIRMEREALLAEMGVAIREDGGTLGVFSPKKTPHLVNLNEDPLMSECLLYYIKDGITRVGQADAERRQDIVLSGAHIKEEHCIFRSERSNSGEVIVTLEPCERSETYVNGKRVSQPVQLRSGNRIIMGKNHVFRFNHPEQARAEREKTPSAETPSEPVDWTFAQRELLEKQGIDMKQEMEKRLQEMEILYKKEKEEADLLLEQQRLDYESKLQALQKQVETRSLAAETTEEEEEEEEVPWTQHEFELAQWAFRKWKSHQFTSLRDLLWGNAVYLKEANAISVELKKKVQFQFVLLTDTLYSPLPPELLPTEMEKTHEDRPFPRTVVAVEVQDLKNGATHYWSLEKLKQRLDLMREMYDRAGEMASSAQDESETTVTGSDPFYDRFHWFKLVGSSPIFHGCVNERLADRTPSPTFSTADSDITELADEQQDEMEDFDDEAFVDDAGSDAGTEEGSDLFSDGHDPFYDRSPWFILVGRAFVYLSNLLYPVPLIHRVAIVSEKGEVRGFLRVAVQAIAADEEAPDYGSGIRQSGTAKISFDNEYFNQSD", "test": "pull-down; purified GST-SAM domain on glutathione-agarose beads incubated 2 h with recombinant His-tagged Kif1B fusion proteins; immunoblot with anti-GST and anti-His", "conditions": "both partners purified"}
{"binder": "DLC2 SAM domain (residues 1-130) fused to GST (domain or fragment, human, UniProt Q9Y3M8-1 1-130, looked up, cloned into pGEX4T3; Vector pGEX4T3; also called SAM domain construct; GST-fusion protein containing the SAM domain; source: E. coli BL21pLysS, purified (glutathione-agarose)) MFSQVPRTPASGCYYLNSMTPEGQEMYLRFDQTTRRSPYRMSRILARHQLVTKIQQEIEAKEACDWLRAAGFPQYAQLYEDSQFPINIVAVKNDHDFLEKDLVEPLCRRLNTLNKCASMKLDVNFQRKKG", "values": [{"measurement": "binding result", "value": "binds"}]}
